Measured values: article PMC9989923, “A curcumin analogue GO‐Y030 depletes cancer stem cells by inhibiting the interaction between the HSP70/HSP40 complex and its substrates” (FEBS Open Bio, 2023)

Experiments:
[1] = biological target: T1, recombinant human HSP70‐1A protein (human, UniProt P0DMV8 1-641); assay: ELISA; substrate-binding assay: CMLA immobilised at 500 ng per well; 50 ng per well HSP70-1A or dnaJ-B1 in 20 mM Tris-HCl pH 7.5, 20 mM NaCl, 10 mM MgCl2, 0.2% BSA, 60 min at 30 °C; detected with anti-HSP70 or anti-DNAJB1 pAb and alkaline phosphatase-labelled secondary antibody; with dimethylsulfoxide, GO-Y030 or PFT-μ; settings: both partners purified
T1 construct: recombinant human HSP70-1A (gene HSPA1A), bought from StressMarq Biosciences; No catalogue number printed; source: bought: StressMarq Biosciences

[2] = biological target: T2, recombinant human HSP40/Hdj1 (dnaJ‐B1) protein (human, UniProt P25685 1-340); assay: as above; settings: both partners purified
T2 construct: recombinant human HSP40/Hdj1 (dnaJ-B1, gene DNAJB1), bought from Enzo Life Sciences; No catalogue number printed; source: bought: Enzo Life Sciences
T2 sequence (P25685 whole entry): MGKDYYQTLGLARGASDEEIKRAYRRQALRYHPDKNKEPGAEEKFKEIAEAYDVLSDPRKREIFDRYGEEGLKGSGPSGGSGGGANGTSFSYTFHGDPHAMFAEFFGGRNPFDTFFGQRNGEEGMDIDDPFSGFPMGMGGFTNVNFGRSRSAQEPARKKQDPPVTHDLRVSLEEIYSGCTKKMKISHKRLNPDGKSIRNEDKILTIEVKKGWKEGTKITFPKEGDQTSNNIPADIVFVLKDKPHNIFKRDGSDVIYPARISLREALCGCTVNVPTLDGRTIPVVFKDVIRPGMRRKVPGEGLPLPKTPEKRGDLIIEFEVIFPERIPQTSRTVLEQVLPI

T1 sequence (P0DMV8 whole entry): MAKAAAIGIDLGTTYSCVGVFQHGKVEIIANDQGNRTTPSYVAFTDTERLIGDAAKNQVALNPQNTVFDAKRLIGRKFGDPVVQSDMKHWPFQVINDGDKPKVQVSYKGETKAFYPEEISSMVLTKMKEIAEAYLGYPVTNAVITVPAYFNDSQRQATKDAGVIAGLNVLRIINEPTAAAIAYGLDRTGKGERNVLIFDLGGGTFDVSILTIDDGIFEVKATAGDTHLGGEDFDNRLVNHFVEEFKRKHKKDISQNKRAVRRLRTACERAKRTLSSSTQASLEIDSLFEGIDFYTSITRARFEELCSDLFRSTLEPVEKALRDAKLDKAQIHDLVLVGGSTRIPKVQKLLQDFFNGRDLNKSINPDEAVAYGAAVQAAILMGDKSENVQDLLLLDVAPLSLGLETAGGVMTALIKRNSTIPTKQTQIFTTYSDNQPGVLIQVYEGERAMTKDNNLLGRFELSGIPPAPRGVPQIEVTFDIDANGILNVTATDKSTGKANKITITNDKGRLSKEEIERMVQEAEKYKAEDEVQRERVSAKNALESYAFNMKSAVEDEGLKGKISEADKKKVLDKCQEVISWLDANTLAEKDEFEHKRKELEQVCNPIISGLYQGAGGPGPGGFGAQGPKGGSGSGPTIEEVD

binding result [1]: binds | binding result [2]: binds
B1: carboxymethylated α‐lactalbumin (natural protein, bovine, UniProt P00711 20-142, looked up)
chain: EQLTKCEVFRELKDLKGYGGVSLPEWVCTTFHTSGYDTQAIVQNNDSTEYGLFQINNKIWCKDDQNPHSSNICNISCDKFLDDDLTDDIMCVKKILDKVGINYWLAHKALCSEKLDQWLCEKL
modifications: reduced with 20 mM dithiothreitol in 8 M urea and alkylated with 40 mM iodoacetamide (called carboxymethylated); permanently unfolded
notes: also called CMLA; carboxymethylated lactalbumin; source: bovine α-lactalbumin bought: Sigma-Aldrich; reduced in 8 M urea with dithiothreitol, alkylated with iodoacetamide, dialysed against PBS
